Reference: patent US9309288B2, “Selective αvβ3 receptor peptide antagonist for therapeutic and diagnostic applications” (ADVANCED ACCELERATOR APPLICATIONS, priority 2005, dated 2016)

Target: αvβ3 (Homo sapiens, UniProt P05106+P06756)
Assay: Cell adhesion assay, αvβ3 overexpressing K562 cells (Kαvβ3) on vitronectin
Format: cell-based
Design: expressed in transfected cells; host or cells: K562 (human erythroleukemia), gift of Dr. S. D. Blystone
Details: 10 μM peptide
Method: Cell Adhesion and Competitive Assay: Human erythroleukemia K562 cells, stably cotransfected with cDNA of αv or αIIb subunit and β3 or β5 subunits, were kindly provided by Dr. S. D. Blystone (SUNY Upstate Medical University, Syracuse, N.Y.). Cells were maintained in Iscove's Modified Dubecco's Medium (IMDM) supplemented with 10% heat-inactivated fetal bovine serum, 100 IU/ml penicillin, 50 μg/mL streptomycin and 500 μg/mL G418 in a humidified incubator with 5% CO2 at 37° C. […] Cells were used to determine affinity for αvβ3 and cross-reactivity with αvβ5 and αIIbβ3 integrin.
Briefly, 24-well flat-bottom plates were incubated overnight with 5 μg/mL vitronectin. The pre-coated plates were rinsed with PBS, incubated for 1 h at 23° C. with 1% heat-denatured bovine serum albumin, and rinsed again. Then, αvβ3 overexpressing K562 cells were incubated with various concentrations of cyclic RGD peptides or diluents for 1 h at 4° C. Peptide-treated cells (0.2-0.5×106/100 μL/well) were seeded onto pre-coated plates and allowed to adhere for 1 h at 37° C. in 5% CO2. Non-adherent cells were removed with gentle washing, whereas adherent cells were detached by trypsinization and counted. Three different adhesion assays were performed in duplicates.
All synthesized peptides were tested for their ability to inhibit cell adhesion to vitronectin. […]

Sequence of αvβ3 (P06756 31-889 limits assumed): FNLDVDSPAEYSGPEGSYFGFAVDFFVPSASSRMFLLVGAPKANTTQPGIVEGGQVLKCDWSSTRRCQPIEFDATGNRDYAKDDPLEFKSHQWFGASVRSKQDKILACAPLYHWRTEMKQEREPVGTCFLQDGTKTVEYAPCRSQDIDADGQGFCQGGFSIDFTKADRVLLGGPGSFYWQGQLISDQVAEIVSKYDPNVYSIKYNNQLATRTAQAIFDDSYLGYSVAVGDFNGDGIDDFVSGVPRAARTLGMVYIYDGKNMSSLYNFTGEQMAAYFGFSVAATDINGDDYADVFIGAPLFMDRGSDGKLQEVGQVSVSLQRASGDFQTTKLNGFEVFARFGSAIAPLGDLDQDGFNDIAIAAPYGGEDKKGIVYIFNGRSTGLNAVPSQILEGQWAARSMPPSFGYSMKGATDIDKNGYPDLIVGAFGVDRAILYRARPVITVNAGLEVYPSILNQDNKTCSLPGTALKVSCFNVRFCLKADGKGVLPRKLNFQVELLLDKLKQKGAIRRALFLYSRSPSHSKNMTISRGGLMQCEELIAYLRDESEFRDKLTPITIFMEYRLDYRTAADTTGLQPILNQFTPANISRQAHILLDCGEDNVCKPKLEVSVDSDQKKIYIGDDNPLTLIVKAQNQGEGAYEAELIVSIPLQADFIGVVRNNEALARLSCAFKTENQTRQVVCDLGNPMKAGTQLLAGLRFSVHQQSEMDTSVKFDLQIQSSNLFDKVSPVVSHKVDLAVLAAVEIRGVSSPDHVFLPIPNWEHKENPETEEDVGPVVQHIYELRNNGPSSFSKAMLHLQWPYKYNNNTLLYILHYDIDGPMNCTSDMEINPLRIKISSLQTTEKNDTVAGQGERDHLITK
Sequence of αvβ3 (P06756 891-1048 partner limits assumed): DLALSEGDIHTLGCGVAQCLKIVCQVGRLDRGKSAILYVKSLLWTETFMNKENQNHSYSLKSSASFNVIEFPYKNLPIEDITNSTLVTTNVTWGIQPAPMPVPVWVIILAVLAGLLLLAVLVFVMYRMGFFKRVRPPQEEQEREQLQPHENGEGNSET
Sequence of αvβ3 (P05106 27-788): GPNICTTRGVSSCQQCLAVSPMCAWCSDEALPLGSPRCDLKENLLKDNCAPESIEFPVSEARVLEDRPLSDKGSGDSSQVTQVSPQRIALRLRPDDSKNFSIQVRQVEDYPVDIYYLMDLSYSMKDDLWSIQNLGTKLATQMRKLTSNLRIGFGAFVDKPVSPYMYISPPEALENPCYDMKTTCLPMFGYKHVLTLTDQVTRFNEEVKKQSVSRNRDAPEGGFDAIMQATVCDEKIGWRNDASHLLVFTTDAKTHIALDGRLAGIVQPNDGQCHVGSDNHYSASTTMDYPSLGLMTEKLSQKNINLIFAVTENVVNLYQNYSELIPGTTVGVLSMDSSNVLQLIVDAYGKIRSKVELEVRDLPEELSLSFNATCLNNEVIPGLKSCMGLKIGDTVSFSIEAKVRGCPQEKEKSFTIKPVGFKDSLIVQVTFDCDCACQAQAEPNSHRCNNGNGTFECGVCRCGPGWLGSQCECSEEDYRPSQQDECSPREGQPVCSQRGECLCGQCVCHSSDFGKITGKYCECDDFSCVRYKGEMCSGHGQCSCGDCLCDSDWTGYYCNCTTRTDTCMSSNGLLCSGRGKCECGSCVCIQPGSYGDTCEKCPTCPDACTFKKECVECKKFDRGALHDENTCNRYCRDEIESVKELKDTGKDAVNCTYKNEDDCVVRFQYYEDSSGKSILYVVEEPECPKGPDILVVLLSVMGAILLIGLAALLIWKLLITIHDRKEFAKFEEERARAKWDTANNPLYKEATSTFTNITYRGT

Substance	cell adhesion remaining as compared to untreated control cells [%]
RNPHKGPAT [echi 11-19]	97.5
echi6-19: fragment of the RGDechi sequence (SEQ ID NO: 2) (MDDPGRNPHKGPAT)	99.0
